Target: WT Atezolizumab scFv-His6, purified
Experiment: mass photometry; Refeyn TwoMP, room temperature, 1X PBS; PD-L1 at 7.4, 18.5 and 74 nM; each scFv at 100 nM

stoichiometry N: 2
Substance: WT Atezolizumab scFv-His6, purified
